Reference: patent US8138148B2, “GDNF derived peptides” (Copenhagen University, priority 2005, dated 2012)

Experiments:
Format in all cases: cell-based, rat
hippocampal neurons [1] = assay: Neurite outgrowth of hippocampal neurons transfected with dominant negative FGFR; details: 10 ng/ml GDNF or 3 μg/ml GDNFp1, 18 hours, dnFGFR vs empty vector
Protocol: (§1) For cocultures, L-cells were seeded in 8-well LabTek® Permanox Chamber slides at a density of 100.000 cells/well, except for transfection experiments where cells were seeded in 4-well LabTek® Permanox Chamber slides at a density of 200.000 cells/well. L-cells were grown for 24 hours in DMEM supplemented with 10% (v/v) FCS, 1% (v/v) glutamax, 100 U/ml penicillin, 100 μg/ml streptomycin, 2.5 μg/ml fungizone, and 567 μg/ml neomycin (G418), followed by washing twice in neurobasal medium with supplements before primary hippocampal neurons were seeded at a density of 7.000 cells/well in 8-well slides or 20.000 cells/well in 4-well slides.
Additionally, neurons were transiently transfected with a dominant negative version of the FGFR (dnFGFR), As an alternative to the use of a pharmacological FGFR inhibitor, The dnFGFR plasmid encodes an FGFR that lacks the kinase domain. This mutant receptor inhibits the function of wild type FGFR by engaging in dimers that lack kinase activity. Transfection with an empty vector served as control. Transfection was also done with wtFGFR in order to assess the effect of overexpressing the FGFR.
Transfections were performed with a Nucleofector™ device and a Rat Neuron Nucleofector™ kit (Amaxa Inc., Gaithersburg, Md., USA). This transfection method is based on electroporation in combination with a Nucleofector™ solution containing lipophilic agents. These agents form liposomes containing the plasmid DNA, which then enter the cells during electroporation. The method allows transfection of undividing cells such as neurons. 3 μg of the plasmid of interest was mixed with the Nucleofector™ solution and primary hippocampal neurons were resuspended in the mixture, electroporated in the Nucleofector™ device, and transferred to neurobasal medium with supplements and 5% (v/v) FCS. Cells were then incubated for 2 hours after which they were resuspended in medium without serum, counted, seeded and incubated for 6 hours before GDNF or GDNFp1 was added. Medium alone was added to control and cells were incubated for 18 hours.
All transient transfections in this study included co-transfection with a plasmid encoding EGFP, which allows the identification of transfected cells. To ensure that all EGFP-expressing cells also are transfected with the plasmid of interest, a ratio of […] between the EGFP-encoding plasmid and the plasmid of interest was used (i.e. 0.5 μg EGFP-encoding plasmid was used for each transfection).
Neurite outgrowth experiments were terminated after the stated time by fixating the cells. To visualize neurons and their neurites, immunostaining of GAP-43 was performed. This staining is specific for neurons. Transfected cells and their neurites should be visible without immunostaining due to the fluorescence emitted by GFP. […]

hippocampal neurons [2] = assay: Neurite outgrowth assay, co-cultures of hippocampal neurons on control fibroblasts or NCAM-expressing fibroblasts; details: 24 hours
Protocol: (§2) Two different versions of the neurite outgrowth assay were used in this study, monocultures and co-cultures.
(§3) In monocultures, neurons are grown directly on plastic and the only neuritogenic stimulus is the one presented by the added substance. In co-cultures, neurons are grown on top of a confluent monolayer of fibroblasts expressing NCAM-140 (LBN110) or NCAM-negative control fibroblasts (LVN212). NCAM on the neurons interact with NCAM on LBN110 cells thereby stimulating neurite outgrowth from the neurons. This system thus permits the study of NCAM-NCAM interactions and interactions between NCAM and other molecules.
(§4) For all experiments cells were grown in neurobasal medium with supplements as described above in a final volume of 300 μl/well in 8-well LabTek® Permanox Chamber slides or 500 μl/well in 4-well LabTek® Permanox Chamber slides.
as §1
(§5) To evaluate the effect peptides on neurite outgrowth, GDNF and the peptides, G1, G2, G3, A1, A2, A3, N1, N2 and N3 were diluted to the appropriate concentrations and added to the neurons approximately 10 minutes after seeding. Medium alone was added to controls, and cells were incubated for 24 hours.
(§6) Neurite outgrowth experiments were terminated after the stated time by fixating the cells. To visualize neurons and their neurites, immunostaining of GAP-43 was performed. This staining is specific for neurons. Transfected cells and their neurites should be visible without immunostaining due to the fluorescence emitted by GFP. […] GFP is a cytoplasmic protein, and since thin neurites only contain a small volume of cytoplasm, GFP is only found in small amounts in most neurites. Therefore, a double-staining protocol, where cells were immunostained against GFP and GAP-43, was adopted. This protocol allowed the identification of transfected cells on the basis of GFP-staining in combination with visualization of neurites based on GAP-43-staining.
Without prior removal of the medium 300 μl/well (8-well slides) or 500 μl/well (4-well slides) of a PBS solution containing 0.4 mM CaCl2, 0.05 M sucrose and 8% (v/v) formaldehyde was added to the cultures for 20 minutes. Cells were then washed 10 minutes in PBS followed by washing in PBS with 1% (w/v) BSA for 20 minutes, after which cells were incubated with primary antibodies overnight at 4° C.
Rabbit anti-rat GAP-43 antibodies were diluted 1:1000 for staining of untransfected cells and 1:2000 for staining of transfected cells. Mouse anti-GFP antibodies were diluted 1:1000. Antibodies were diluted in a PBS solution containing 7% (v/v) FCS to block unspecific binding, 50 mM glycine to block formaldehyde used for fixation, 0.2% (v/v) saponin to permeabilize cells, and 0.02% (v/v) NaN3 to preserve antibodies for later use.
The next day cells were washed 10 minutes in PBS followed by washing in PBS with 1% (w/v) BSA for 20 minutes. Cells were then incubated with secondary antibodies diluted in PBS with 1% (w/v) BSA for one hour at room temperature. Goat anti-rabbit IgG antibodies conjugated to Alexa 488 were diluted 1:1000 for untransfected cells and 1:2000 for transfected cells. Goat anti-mouse IgG antibodies conjugated to Alexa 546 were diluted 1:1000. Finally cells were washed 3×7 minutes in PBS and mounted with fluorescent mounting medium. […]

[3] = system: primary hippocampal neurons; assay: Neurite outgrowth assay, monocultures of primary hippocampal neurons; details: monoculture, stimulated 24 hours; GDNF 1-100 ng/ml, peptides 0.1-27 μg/ml; versus medium alone
Protocol: as §2, §3, §4
For monocultures, primary hippocampal neurons were seeded in 8-well LabTek® Permanox Chamber slides at a density of 10,000 cells/well.
as §5
as §6, with “GAP-43-staining. […]” for “GAP-43-staining.”

B1: GDNF: glial cell line-derived neurotrophic factor, full-length protein used as stimulus (protein)
chain: SPDKQMAVLPRRERNRQAAAANPENSRGKGRRGQRGKNRGCVLTAIHLNVTDLGLGYETKEELIFRYCSGSCDAAETTYDKILKNLSRNRRLVSDKVGQACCRPIAFDDDLSFLDDNLVYHILRKHSAKRCGCI
neurite outgrowth mediated by the substance after transfection with dominant negative FGFR, on NCAM-expressing fibroblasts (hippocampal neurons [1]; NCAM-expressing fibroblasts): decreases neurite outgrowth
neurite outgrowth mediated by the substance after transfection with dominant negative FGFR, on control fibroblasts (hippocampal neurons [1]; control fibroblasts): decreases neurite outgrowth
neurite outgrowth, overall effect of treatment, neurons grown on NCAM-expressing fibroblasts (hippocampal neurons [2]; co-culture on NCAM-expressing fibroblasts, GDNF 1-100 ng/ml, peptides 0.1-81 μg/ml): overall significant effect
neurite outgrowth, overall effect of treatment, neurons grown on control fibroblasts (hippocampal neurons [2]; co-culture on control fibroblasts, GDNF 1-100 ng/ml, peptides 0.1-81 μg/ml): overall significant effect
difference between neurite outgrowth on control fibroblasts and on NCAM-expressing fibroblasts across concentrations (one-way ANOVA) (hippocampal neurons [2]; difference per concentration, expressed as percentage of control): mean differences are not all the same
neurite outgrowth, overall effect of treatment (one-way ANOVA) [3]: overall statistically significant effect
